Measured values as given in US20220227882A1 (TRUSTEES OF TUFTS COLLEGE, published 2022).
Numbering of substitutions follows the chain as printed.

Assays:
[1] = target: T1, G445A (Homo sapiens, UniProt P78325); experiment: high-throughput flow cytometry, HEK293 cells with mutant ADAM8, high stringency; range in parentheses; closed box
T1 construct: expressed on HEK293 cells; also called human ADAM8 point mutant G445A
T1 sequence (ADAM8, looked up): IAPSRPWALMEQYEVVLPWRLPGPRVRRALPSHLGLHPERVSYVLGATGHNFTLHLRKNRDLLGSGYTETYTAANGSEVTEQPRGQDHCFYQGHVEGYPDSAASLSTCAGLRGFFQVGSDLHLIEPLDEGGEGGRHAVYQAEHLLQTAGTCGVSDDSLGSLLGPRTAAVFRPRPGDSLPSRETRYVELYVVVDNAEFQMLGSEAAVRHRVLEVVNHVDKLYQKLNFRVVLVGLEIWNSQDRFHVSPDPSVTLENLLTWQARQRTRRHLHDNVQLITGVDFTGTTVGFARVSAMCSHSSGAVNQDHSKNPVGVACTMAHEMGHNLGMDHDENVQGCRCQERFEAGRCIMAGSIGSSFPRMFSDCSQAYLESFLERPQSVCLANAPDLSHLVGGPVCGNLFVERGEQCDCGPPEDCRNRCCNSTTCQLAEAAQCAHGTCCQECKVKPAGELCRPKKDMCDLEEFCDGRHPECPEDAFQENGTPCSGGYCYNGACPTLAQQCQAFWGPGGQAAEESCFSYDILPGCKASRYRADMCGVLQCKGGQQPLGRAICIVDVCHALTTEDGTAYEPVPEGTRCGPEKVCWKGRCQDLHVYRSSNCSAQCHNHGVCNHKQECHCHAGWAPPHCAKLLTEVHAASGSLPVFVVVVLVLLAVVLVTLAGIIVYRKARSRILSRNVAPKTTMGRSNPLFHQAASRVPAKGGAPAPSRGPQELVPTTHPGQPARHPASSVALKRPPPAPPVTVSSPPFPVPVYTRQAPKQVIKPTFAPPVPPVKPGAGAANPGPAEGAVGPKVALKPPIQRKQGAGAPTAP
Method: (§1) A variety of experimental parameters were optimized for high-throughput flow cytometry including blocking buffer, and primary and secondary antibody concentrations, to identify the optimal conditions for screening. Through these studies ADP2 and ADP13 were determined to be high affinity binding antibodies.
(§2) Thus, for these studies antigen-binding fragments (Fabs) of ADP2 and ADP13, which bind with lower affinity than the full antibody, were generated. In addition, higher binding stringency conditions were tested, such as increased pH, salinity, and temperature, and/or increased washing, to weaken binding sufficiently to allow identification of critical binding residues in flow cytometry. The final experimental flow cytometry conditions were: primary antibody incubation with ADP2 Fab (0.50 μg/ml), ADP13 Fab (5.00 μg/ml) and Control Ab (0.16 μg/ml) for 60 minutes in flow cytometry buffer containing 10% goat serum in PBS (Ca²⁺ and Mg²⁺ free). […] Samples were washed three times after primary antibody incubation and twice after secondary antibody incubation with PBS (Ca²⁺ and Mg′ free). Next, HEK293 cells expressing WT or mutated ADAM8 proteins or EV DNA were incubated with ADP2 or ADP13 Fabs or Control Ab at their optimal concentrations. Fab binding was detected using Alexa Fluor 488-conjugated secondary antibodies and mean cellular fluorescence determined using the Intellicyt iQue flow cytometry platform. […] This counter-screen strategy facilitates the exclusion of mutants that are locally misfolded or that have an expression defect. Binding of each test Fab to each mutant clone in the alanine scanning library was determined, in duplicate, by high-throughput flow cytometry.

[2] = target: T2, R482A (Homo sapiens, UniProt P78325); experiment: as above
T2 construct: expressed on HEK293 cells; also called human ADAM8 point mutant R482A
T2 sequence (ADAM8, looked up): T1 sequence (ADAM8, looked up) with A429G, R466A
Method: as §1, §2

B1: ADP13 Fab (Fab, V domains shown)
VH: EVQLQQSGPEMVKPGTSVKISCKASGYTFTDYYINWVKQSHGKSLEWIGDISPNIGGATYNPKFKGKAILTVDKSARTAYMELRSLTSEDSAVYCCTRGGSSYPYFYAMDYWGQGTSVTVSS
VL: DIVMSQSPSSLAVSVGEKVTMSCKSSQSLLYSSNQKKYLAWYQQKPGQSPKLLIYWASTRESGVPDRFTGSGSGTDFTLTISSVKAEDLAVYYCQQFYSYPYTFGGGTKLEINR
Binding Reactivity (% WT) [1]: 9.7 % WT | Binding Reactivity (% WT) [2]: 8.3 % WT
